Values joined by “and” are separate entries in the source; they are usually repeats but may differ in a detail not shown here. Identical values can stand only once.
Molecular target: CD64 (FcγRI) (human) (UniProt P12314)
Test: cell-based or functional assay

UniProt P12314, sequence (P12314 16-374): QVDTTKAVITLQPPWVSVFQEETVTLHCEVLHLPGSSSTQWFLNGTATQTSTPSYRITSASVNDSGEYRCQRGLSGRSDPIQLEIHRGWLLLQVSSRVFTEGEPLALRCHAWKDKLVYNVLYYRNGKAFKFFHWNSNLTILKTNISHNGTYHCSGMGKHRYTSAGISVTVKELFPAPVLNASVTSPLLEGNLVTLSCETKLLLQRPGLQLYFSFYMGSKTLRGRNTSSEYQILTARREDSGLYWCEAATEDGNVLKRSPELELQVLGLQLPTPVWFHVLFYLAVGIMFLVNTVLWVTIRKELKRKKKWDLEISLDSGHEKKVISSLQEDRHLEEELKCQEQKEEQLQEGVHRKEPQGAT
H22(scFv)-Ang, sequence (chain): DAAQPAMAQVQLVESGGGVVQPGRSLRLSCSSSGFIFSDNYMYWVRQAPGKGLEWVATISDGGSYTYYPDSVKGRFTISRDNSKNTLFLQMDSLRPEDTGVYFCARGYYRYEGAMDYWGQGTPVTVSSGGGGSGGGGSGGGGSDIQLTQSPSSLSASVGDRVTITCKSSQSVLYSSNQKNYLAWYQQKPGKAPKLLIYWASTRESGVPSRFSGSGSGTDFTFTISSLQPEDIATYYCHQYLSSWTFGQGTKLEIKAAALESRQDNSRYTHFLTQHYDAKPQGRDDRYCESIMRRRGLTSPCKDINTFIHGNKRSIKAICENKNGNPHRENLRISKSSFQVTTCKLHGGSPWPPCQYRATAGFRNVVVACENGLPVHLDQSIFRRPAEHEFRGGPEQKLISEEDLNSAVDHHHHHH

Molecule	IC50/EC50, XTT growth inhibition, HL-60 cells	IC50/EC50, XTT growth inhibition, U937 cells [nM]	IC50/EC50, XTT growth inhibition, hM1φ
H22(scFv)-Ang	10 nM	0.2	0.29 nM and 0.108 nM
H22(scFv)-MAP	0.04 nM		
GB-H22(scFv) (scFv) HIDDDDKIIGGHEAKPHSRPYMAFLMIWDQKSLKRCGGFLIRDDFVLTAAHCWGSSINVTLGAHNIKEQEPTQQFIPVKRAIPHPAYNPKNFSNDIMLLQLERKAKRTRAVQPLRLPSNKAQVKPGQTCSVAGWGQTAPLGKHSHTLQEVKMTVQEDRKCESDLRHYYDSTIELCVGDPEIKKTSFKGDSGGPLVCNKVAQGIVSYGRNNGMPPRACTKVSSFVHWIKKTMKRYGSKLAEHEGDAAQPAMAQVQLVESGGGVVQPGRSLRLSCSSSGFIFSDNYMYWVRQAPGKGLEWVATISDGGSYTYYPDSVKGRFTISRDNSKNTLFLQMDSLRPEDTGVYFCARGYYRYEGAMDYWGQGTPVTVSSGGGGSGGGGSGGGGSDIQLTQSPSSLSASVGDRVTITCKSSQSVLYSSNQKNYLAWYQQKPGKAPKLLIYWASTRESGVPSRFSGSGSGTDFTFTISSLQPEDIATYYCHQYLSSWTFGQGTKLEIKAAAGPHHHHHH			0.414 nM and 0.14 nM
GBR201K-H22(scFv) (scFv) HIDDDDKIIGGHEAKPHSRPYMAFLMIWDQKSLKRCGGFLIRDDFVLTAAHCWGSSINVTLGAHNIKEQEPTQQFIPVKRAIPHPAYNPKNFSNDIMLLQLERKAKRTRAVQPLRLPSNKAQVKPGQTCSVAGWGQTAPLGKHSHTLQEVKMTVQEDRKCESDLRHYYDSTIELCVGDPEIKKTSFKGDSGGPLVCNKVAQGIVSYGKNNGMPPRACTKVSSFVHWIKKTMKRYAEHEGDAAQPAMAQVQLVESGGGVVQPGRSLRLSCSSSGFIFSDNYMYWVRQAPGKGLEWVATISDGGSYTYYPDSVKGRFTISRDNSKNTLFLQMDSLRPEDTGVYFCARGYYRYEGAMDYWGQGTPVTVSSGGGGSGGGGSGGGGSDIQLTQSPSSLSASVGDRVTITCKSSQSVLYSSNQKNYLAWYQQKPGKAPKLLIYWASTRESGVPSRFSGSGSGTDFTFTISSLQPEDIATYYCHQYLSSWTFGQGTKLEIKAAAGPHHHHHH	2.4 nM and 5.7 nM		

From patent US20170369574A1
